# In PMC4031664 (Prion, 2013):
# T1: tandem OR repeats of mouse PrP (Mus musculus)
# T1 chain: PHGGSWGQPHGGSWGQ
# Target: T1, tandem OR repeats of mouse PrP
# Test: crystal structure
binder,measurement,value
"Fab fragment of the monoclonal POM2 IgG (Fab, V domains shown) VH: VKLQESGGEVVRPGTSVKVSCKASGYAFTNYLIEWVKQRPGQGLEWIGVINPGSGDTNYNEKFKGKATLTADKSSSTAYMQLNSLTSDDSAVYFCARSGAAAPTYYAMDYWGQGVSVTVSS VL: DIVMTQSHKFMSTSVGDRVSITCKASQVGTALAWYQQKPGQSPKLLIYWASTRHTGVPDRFTGSGSGTDFTLTISNVQSEDLSDYFCQQYSSYPTFGGGTKLEIK",binding result,binds
